One block for each sequence: values may come before it.
Tests used:
[1] = target: HLA-A*02:01; test: IEDB peptide-MHC binding, purified MHC/competitive/fluorescence; ≥ and ≤ were set here for values at or beyond the usual limits of such assays
[2] = target: HLA-A*03:01; test: as above
[3] = target: HLA-A*11:01; test: as above
[4] = target: HLA-A*24:02; test: as above
[5] = target: HLA-B*08:01; test: as above
[6] = target: HLA-B*15:01; test: as above
[7] = target: HLA-B*07:02; test: as above
[8] = target: HLA-A*01:01; test: IEDB peptide-MHC binding, purified MHC/competitive/fluorescence; filed as Kd, often an IC50 or EC50 that approximates it; ≥ and ≤ were set here for values at or beyond the usual limits of such assays
[9] = target: HLA-A*03:01; test: as above
[10] = target: HLA-B*15:01; test: as above
[11] = target: HLA-B*58:01; test: as above
[12] = target: HLA-A*23:01; test: IEDB peptide-MHC binding, purified MHC/direct/fluorescence; filed as Kd, often an IC50 or EC50 that approximates it; ≥ and ≤ were set here for values at or beyond the usual limits of such assays
[13] = target: HLA-A*24:03; test: as above; conditions: source organism: Vibrio cholerae
[14] = target: HLA-C*15:02; test: as above
[15] = target: HLA-B*39:01; test: IEDB peptide-MHC binding, purified MHC/competitive/fluorescence; filed as Kd, often an IC50 or EC50 that approximates it; ≥ and ≤ were set here for values at or beyond the usual limits of such assays
[16] = target: HLA-B*35:01; test: as above
[17] = target: HLA-B*07:02; test: IEDB peptide-MHC binding, purified MHC/direct/fluorescence; filed as Kd, often an IC50 or EC50 that approximates it; ≥ and ≤ were set here for values at or beyond the usual limits of such assays
[18] = target: HLA-B*15:01; test: as above
[19] = target: HLA-B*46:01; test: as above; conditions: source organism: Giardia lamblia ATCC 50803
[20] = target: HLA-C*05:01; test: as above
[21] = target: HLA-B*15:17; test: as above; conditions: source organism: Francisella tularensis subsp. holarctica LVS
[22] = target: HLA-B*57:01; test: as above; conditions: source organism: Francisella tularensis subsp. holarctica LVS
[23] = target: HLA-B*58:01; test: as above; conditions: source organism: Francisella tularensis subsp. holarctica LVS
[24] = target: HLA-A*24:03; test: IEDB peptide-MHC binding, purified MHC/competitive/fluorescence; filed as Kd, often an IC50 or EC50 that approximates it; ≥ and ≤ were set here for values at or beyond the usual limits of such assays
[25] = target: HLA-A*01:01; test: IEDB peptide-MHC binding, purified MHC/direct/fluorescence; filed as Kd, often an IC50 or EC50 that approximates it; ≥ and ≤ were set here for values at or beyond the usual limits of such assays; conditions: source organism: Homo sapiens
[26] = target: HLA-A*26:01; test: IEDB peptide-MHC binding, purified MHC/competitive/fluorescence; filed as Kd, often an IC50 or EC50 that approximates it; ≥ and ≤ were set here for values at or beyond the usual limits of such assays; conditions: source organism: Homo sapiens
[27] = target: HLA-A*69:01; test: as above; conditions: source organism: Homo sapiens
[28] = target: HLA-B*18:01; test: as above; conditions: source organism: Homo sapiens
[29] = target: HLA-B*27:03; test: as above; conditions: source organism: Homo sapiens
[30] = target: HLA-B*46:01; test: as above; conditions: source organism: Homo sapiens
[31] = target: HLA-B*51:01; test: as above
[32] = target: HLA-B*57:01; test: as above; conditions: source organism: Homo sapiens
[33] = target: HLA-A*11:01; test: IEDB peptide-MHC binding, purified MHC/competitive/radioactivity; filed as Kd, often an IC50 or EC50 that approximates it; ≥ and ≤ were set here for values at or beyond the usual limits of such assays; conditions: source organism: Vaccinia virus WR
[34] = target: HLA-A*31:01; test: as above; conditions: source organism: Vaccinia virus WR
[35] = target: HLA-A*33:01; test: as above; conditions: source organism: Vaccinia virus WR
[36] = target: HLA-A*68:01; test: as above; conditions: source organism: Vaccinia virus WR
[37] = source organism: Zaire ebolavirus
[38] = source organism: Escherichia coli B171
[39] = source organism: Escherichia coli str. K-12 substr. MG1655
[40] = source organism: Yersinia pestis Nepal516
[41] = source organism: Giardia lamblia ATCC 50803
[42] = source organism: Bacillus anthracis str. A2012
[43] = source organism: Vaccinia virus Copenhagen
[44] = source organism: Mycobacterium tuberculosis C
[45] = source organism: Mycobacterium tuberculosis H37Ra
[46] = source organism: Vaccinia virus

Sequence: VGHMMVIFR
IC50 [1, 37]: 3.68 µM
IC50 [2, 37]: ≥ 218 µM
IC50 [3, 37]: 0.196 µM
IC50 [4, 37]: ≥ 271 µM
IC50 [5, 37]: ≥ 185 µM
IC50 [6, 37]: ≥ 1340 µM

Sequence: IIAVARKHH
IC50 ([2]; source organism: Variola virus): 27.7 µM
IC50 ([7]; source organism: Variola virus): 59.7 µM
IC50 ([6]; source organism: Variola virus): 27.2 µM

Sequence: NTPVYKLDI
IC50 [7, 37]: ≥ 119 µM

Kd [8, 38]: 0.787 µM
Kd [9, 38]: ≥ 20 µM
Kd [10, 38]: 0.796 µM
Kd [11, 38]: 1.02 µM
Sequence: VSALRLFNY

Sequence: RYQAQQVEW
Kd ([12]; source organism: Vibrio cholerae): 0.0046 µM
Kd [13]: 0.0016 µM

Sequence: HWLKVWFEW
Kd ([12]; source organism: Vibrio vulnificus CMCP6): 0.121 µM

Sequence: SFASLFLPK
IC50 [2, 37]: 0.677 µM
IC50 [3, 37]: 0.0815 µM
IC50 [4, 37]: ≥ 114 µM

Kd [14, 39]: ≥ 20 µM
Kd [15, 39]: 0.0075 µM
Sequence: AKIEAPLLL

Sequence: MVASQLARY
Kd [8, 40]: 1.23 µM
Kd [9, 40]: 0.907 µM
Kd [16, 40]: 0.0009 µM

Sequence: YQQLREAAT
IC50 [1, 37]: 29.7 µM
IC50 [5, 37]: ≥ 183 µM

Sequence: VLASGPGPF
Kd [17, 41]: 9.38 µM
Kd [18, 41]: 0.0184 µM
Kd [19]: ≥ 20 µM
Kd [20, 41]: ≥ 20 µM

Sequence: EVNSFKAAL
IC50 [1, 37]: ≥ 236 µM
IC50 [4, 37]: 33.2 µM
IC50 [7, 37]: ≥ 139 µM
IC50 [5, 37]: ≥ 85.9 µM

Sequence: YGIAAHWSY
Kd [21]: 0.0032 µM
Kd [22]: 0.259 µM
Kd [23]: 0.0475 µM
Kd ([16]; source organism: Francisella tularensis subsp. tularensis FSC198): ≤ 0.0001 µM

Sequence: RAFSLYMTL
Kd [14, 42]: 0.466 µM
Kd [24, 42]: 0.0586 µM

Sequence: EKVQRQIQV
IC50 [5, 37]: ≥ 181 µM

Kd [25]: 0.0009 µM
Kd ([20]; source organism: Homo sapiens): 0.005 µM
Kd [26]: ≥ 20 µM
Kd [27]: ≥ 20 µM
Kd ([10]; source organism: Homo sapiens): ≥ 20 µM
Kd [28]: ≥ 20 µM
Kd [29]: ≥ 20 µM
Kd ([15]; source organism: Homo sapiens): ≥ 20 µM
Kd [30]: ≥ 20 µM
Kd ([31]; source organism: Homo sapiens): ≥ 20 µM
Kd [32]: ≥ 20 µM
Sequence: VTDTALAYF

Sequence: ALKKLIIDR
IC50 [1, 43]: ≥ 166 µM
IC50 [2, 43]: ≥ 83.2 µM
IC50 [4, 43]: ≥ 3610 µM
Kd [33]: ≥ 56.4 µM
Kd [34]: 0.00601 µM
Kd [35]: 1.89 µM
Kd [36]: 6.04 µM

Sequence: KSDDVEGRF
Kd ([20]; source organism: Campylobacter upsaliensis RM3195): ≤ 0.001 µM

Kd ([11]; source organism: Escherichia coli 536): 0.19 µM
Sequence: IQARPCDRW

Sequence: GFLNEDHWF
Kd ([12]; source organism: dengue virus type 2): 0.0245 µM

Kd [31, 39]: ≥ 20 µM
Kd [11, 39]: 0.0083 µM
Sequence: LAWQRTLKW

Kd ([14]; source organism: Homo sapiens): 0.695 µM
Sequence: NAFHHPSAV

Kd ([20]; source organism: Pisum sativum): ≥ 20 µM
Sequence: YKACHNSEL

Sequence: TAKVKNEVN
IC50 [5, 37]: ≥ 365 µM

Sequence: VLSDINAVF
Kd [18, 44]: 0.679 µM
Kd [20, 45]: 0.009 µM

Sequence: KWGKKIILF
Kd ([24]; source organism: Bacillus anthracis str. A0488): 0.0003 µM

Sequence: VSSFQDILL
Kd ([11]; source organism: Influenza A virus (A/X-31(H3N2))): 0.687 µM

Sequence: MASENSSAM
IC50 [1, 37]: 12.1 µM
IC50 [7, 37]: 28.4 µM
IC50 [6, 37]: 21.9 µM

Sequence: LHPLARTAK
IC50 [2, 37]: 34.6 µM
IC50 [3, 37]: 15.4 µM
IC50 [7, 37]: ≥ 158 µM
IC50 [5, 37]: ≥ 277 µM

Sequence: GKVFAPKQK
IC50 [2, 46]: ≥ 155 µM
IC50 [3, 46]: ≥ 119 µM
IC50 [4, 46]: 39.5 µM

Sequence: YPITGVKSL
Kd [17, 44]: 0.0739 µM
Kd [16, 45]: 0.0002 µM
Kd [31, 45]: ≥ 20 µM

Sequence: FINKLNGAM
IC50 [5, 43]: ≥ 138 µM
IC50 [6, 43]: 27.6 µM

From the Immune Epitope Database (IEDB)
